Experimental data taken from patent publication US20260176659A1, “IMPROVED METHOD FOR THE PRODUCTION OF NATURAL VANILLIN” (BASE SE, priority 2022, published 2026).

Test: Bioconversion of eugenol to vanillin: one-pot concurrent cascade EUGO + alkene cleavage oxygenase (5 mM scale)
Format: biochemical
Conditions: for Reaction composition at 24 hours (%) 1a / Reaction composition at 24 hours (%) 2a / Reaction composition at 24 hours (%) 3a / Reaction composition at 24 hours (%) 5a / Conversion of 1a to 3a (%): 5 mM 1a; for Conversion of 1a to 3a (%): 24 h; for Reaction composition after 24 hours 1a (%) / Reaction composition after 24 hours 2a (%) / Reaction composition after 24 hours 3a (%) / Reaction composition after 24 hours 5a (%): Table 8a, CO-XX FD-CFE 1 mg/mL; for Reaction composition after 24 hours 1a (%) / Reaction composition after 24 hours 2a (%) / Reaction composition after 24 hours 3a (%) / Reaction composition after 24 hours 5a (%) / Product distribution after 24 hours 2a (%) / Product distribution after 24 hours 3a (%) / Product distribution after 24 hours 5a (%): eugenol 5 mM; for Product distribution after 24 hours 2a (%) / Product distribution after 24 hours 3a (%) / Product distribution after 24 hours 5a (%): Table 8b, CO-0X FD-CFE 1 mg/mL
Outline: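 Cell-free extracts of EUGO (0.5 mg) and cleavage oxygenase (3 mg) were combined with catalase, 1 mM FeSO4 and 1 mM ascorbate in glycine-NaOH pH 9.0 (or Tris-HCl pH 8.0). The cascade ran with 5 mM eugenol (5% ethanol/DMSO cosolvent) at 30° C and 120 rpm overnight. Methanol-quenched samples were analysed by HPLC at 280/340 nm.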

[1] = EUGO 0 mg/mL, IECO fresh CFE 4 mg/mL, cosolvent DMSO 5% v/v
[2] = EUGO 0 mg/mL, IECO fresh CFE 4 mg/mL, cosolvent EtOH 5% v/v
[3] = EUGO FD-CFE 1 mg/mL (row prints 2, see doubts), IECO FD-CFE 4 mg/mL, pH 9.0, catalase 10 mg/mL
[4] = EUGO FD-CFE 1 mg/mL, IECO FD-CFE 4 mg/mL, pH 8.0, catalase 10 mg/mL
[5] = EUGO FD-CFE 1 mg/mL, IECO FD-CFE 6 mg/mL, pH 8.0, catalase 10 mg/mL
[6] = EUGO FD-CFE 1 mg/mL, IECO FD-CFE 6 mg/mL, pH 9.0, catalase 10 mg/mL
[7] = EUGO FD-CFE 2 mg/mL, IECO FD-CFE 4 mg/mL, pH 8.0, catalase 10 mg/mL
[8] = EUGO FD-CFE 2 mg/mL, IECO FD-CFE 4 mg/mL, pH 9.0, catalase 10 mg/mL
[9] = EUGO FD-CFE 2 mg/mL, IECO FD-CFE 6 mg/mL, pH 8.0, catalase 10 mg/mL
[10] = EUGO FD-CFE 2 mg/mL, IECO FD-CFE 6 mg/mL, pH 9.0, catalase 10 mg/mL
[11] = EUGO FD-CFE 5 mg/mL, IECO FD-CFE 20 mg/mL, pH 8.0, catalase 10 mg/mL
[12] = EUGO FD-CFE 5 mg/mL, IECO FD-CFE 20 mg/mL, pH 9.0, catalase 10 mg/mL
[13] = EUGO fresh CFE 1 mg/mL, IECO fresh CFE 4 mg/mL, cosolvent DMSO 5% v/v
[14] = EUGO fresh CFE 1 mg/mL, IECO fresh CFE 4 mg/mL, cosolvent EtOH 5% v/v
[15] = EUGO FD-CFE 1 mg/mL, catalase 10 mg/mL, pH 8.0
[16] = EUGO FD-CFE 1 mg/mL, catalase 10 mg/mL, pH 9.0
[17] = replicates of concurrent cascade with EUGO, pH 8.0, SD of four experiments
[18] = replicates of concurrent cascade with EUGO, pH 9.0, SD of four experiments

B1: IECO: isoeugenol cleavage oxygenase from Pseudomonas nitroreducens (GenBank: ACP17973), SEQ ID NO: 24 (protein, listed as Pseudomonas nitroreducens)
chain: MARLNRNDPQLVGTLLPTRIEADLFDLEVDGEIPKSINGTFYRNTPEPQVTPQKFHTFIDGDGMASAFHFEDGHVDFISRWVKTARFTAERLARKSLFGMYRNPYTDDTSVKGLDRTVANTSIISHHGKVLAVKEDGLPYELDPRTLETRGRFDYDGQVTSQTHTAHPKYDPETGDLLFFGSAAKGEATPDMAYYIVDKHGKVTHETWFEQPYGAFMHDFAITRNWSIFPIMPATNSLSRLKAKQPIYMWEPELGSYIGVLPRRGQGSQIRWLKAPALWVFHVVNAWEVGTKIYIDLMESEILPFPFPNSQNQPFAPEKAVPRLTRWEIDLDSSSDEIKRTRLHDFFAEMPIMDFRFALQCNRYGFMGVDDPRKPLAHQQAEKIFAYNSLGIWDNHRGDYDLWYSGEASAAQEPAFVPRSPTAAEGDGYLLTVVGRLDENRSDLVILDTQDIQSGPVATIKLPFRLRAALHGCWVPRP
- Reaction composition at 24 hours (%) 1a [1]: 97%
- Reaction composition at 24 hours (%) 2a [1]: 2≤ %
- Reaction composition at 24 hours (%) 3a [1]: 1≤ %
- Reaction composition at 24 hours (%) 5a [1]: 1≤ %
- Conversion of 1a to 3a (%) [1]: 1≤ %
- Reaction composition at 24 hours (%) 1a [2]: 97%
- Reaction composition at 24 hours (%) 2a [2]: 2≤ %
- Reaction composition at 24 hours (%) 3a [2]: 1≤ %
- Reaction composition at 24 hours (%) 5a [2]: 1≤ %
- Conversion of 1a to 3a (%) [2]: 1≤ %
- Reaction composition at 24 hours (%) 1a [3]: 2%
- Reaction composition at 24 hours (%) 2a [3]: 3%
- Reaction composition at 24 hours (%) 3a [3]: 53%
- Reaction composition at 24 hours (%) 5a [3]: 1≤ %
- Conversion of 1a to 3a (%) [3]: 45%
- Reaction composition at 24 hours (%) 1a [4]: 1%
- Reaction composition at 24 hours (%) 2a [4]: 5%
- Reaction composition at 24 hours (%) 3a [4]: 45%
- Reaction composition at 24 hours (%) 5a [4]: 1≤ %
- Conversion of 1a to 3a (%) [4]: 40%
- Reaction composition at 24 hours (%) 1a [5]: 2%
- Reaction composition at 24 hours (%) 2a [5]: 4%
- Reaction composition at 24 hours (%) 3a [5]: 49%
- Reaction composition at 24 hours (%) 5a [5]: 1%
- Conversion of 1a to 3a (%) [5]: 44%
- Reaction composition at 24 hours (%) 1a [6]: 3%
- Reaction composition at 24 hours (%) 2a [6]: 3%
- Reaction composition at 24 hours (%) 3a [6]: 59%
- Reaction composition at 24 hours (%) 5a [6]: 1%
- Conversion of 1a to 3a (%) [6]: 50%
- Reaction composition at 24 hours (%) 1a [7]: 2%
- Reaction composition at 24 hours (%) 2a [7]: 4%
- Reaction composition at 24 hours (%) 3a [7]: 48%
- Reaction composition at 24 hours (%) 5a [7]: 2%
- Conversion of 1a to 3a (%) [7]: 40%
- Reaction composition at 24 hours (%) 1a [8]: 1%
- Reaction composition at 24 hours (%) 2a [8]: 4%
- Reaction composition at 24 hours (%) 3a [8]: 52%
- Reaction composition at 24 hours (%) 5a [8]: 2%
- Conversion of 1a to 3a (%) [8]: 44%
- Reaction composition at 24 hours (%) 1a [9]: 3%
- Reaction composition at 24 hours (%) 2a [9]: 5%
- Reaction composition at 24 hours (%) 3a [9]: 44%
- Reaction composition at 24 hours (%) 5a [9]: 3%
- Conversion of 1a to 3a (%) [9]: 41%
- Reaction composition at 24 hours (%) 1a [10]: 3%
- Reaction composition at 24 hours (%) 2a [10]: 4%
- Reaction composition at 24 hours (%) 3a [10]: 50%
- Reaction composition at 24 hours (%) 5a [10]: 2%
- Conversion of 1a to 3a (%) [10]: 49%
- Reaction composition at 24 hours (%) 1a [11]: 1≤ %
- Reaction composition at 24 hours (%) 2a [11]: 27%
- Reaction composition at 24 hours (%) 3a [11]: 9%
- Reaction composition at 24 hours (%) 5a [11]: 6%
- Conversion of 1a to 3a (%) [11]: 8%
- Reaction composition at 24 hours (%) 1a [12]: 1≤ %
- Reaction composition at 24 hours (%) 2a [12]: 18%
- Reaction composition at 24 hours (%) 3a [12]: 15%
- Reaction composition at 24 hours (%) 5a [12]: 5%
- Conversion of 1a to 3a (%) [12]: 13%
- Reaction composition at 24 hours (%) 1a [13]: 3%
- Reaction composition at 24 hours (%) 2a [13]: 49%
- Reaction composition at 24 hours (%) 3a [13]: 44 ^ %
- Reaction composition at 24 hours (%) 5a [13]: 4%
- Conversion of 1a to 3a (%) [13]: 42 ^ %
- Reaction composition at 24 hours (%) 1a [14]: 4%
- Reaction composition at 24 hours (%) 2a [14]: 5%
- Reaction composition at 24 hours (%) 3a [14]: 86 ^ %
- Reaction composition at 24 hours (%) 5a [14]: 5%
- Conversion of 1a to 3a (%) [14]: 48 ^ %
- Reaction composition after 24 hours 1a (%) [15]: 51%
- Reaction composition after 24 hours 2a (%) [15]: 52%
- Reaction composition after 24 hours 3a (%) [15]: 36%
- Reaction composition after 24 hours 5a (%) [15]: 12%
- Reaction composition after 24 hours 1a (%) [16]: ≤1%
- Reaction composition after 24 hours 2a (%) [16]: 24%
- Reaction composition after 24 hours 3a (%) [16]: 59%
- Reaction composition after 24 hours 5a (%) [16]: 18%
- Product distribution after 24 hours 2a (%) [15]: 67.8%
- Product distribution after 24 hours 3a (%) [15]: 17.6%
- Product distribution after 24 hours 5a (%) [15]: 14.6%
- Product distribution after 24 hours 2a (%) [16]: 49.4%
- Product distribution after 24 hours 3a (%) [16]: 30.7%
- Product distribution after 24 hours 5a (%) [16]: 19.9%
- Conversion of 1a to 3a (%) [17]: 31 ± 2%
- Reaction composition at 24 hours (%) 1a [17]: 1≤ %
- Reaction composition at 24 hours (%) 2a [17]: 51 ± 2%
- Reaction composition at 24 hours (%) 3a [17]: 34 ± 2%
- Reaction composition at 24 hours (%) 5a [17]: 15 ± 3%
- Conversion of 1a to 3a (%) [18]: 52 ± 3%
- Reaction composition at 24 hours (%) 1a [18]: 1≤ %
- Reaction composition at 24 hours (%) 2a [18]: 22 ± 2%
- Reaction composition at 24 hours (%) 3a [18]: 59 ± 1%
- Reaction composition at 24 hours (%) 5a [18]: 18 ± 1%
- overall conversion of 1a to vanillin 3a in the 2-step cascade (with EUGO, 5 mM substrate concentration): 50%
